In patent publication US20130195871A1 (AbbVie / Abbott, published 2013):

Columns and labels:
[1] = biological target: T1, ErbB3 on the cell surface (human, UniProt P21860 20-1342); experiment: flow cytometry on cells, 2 ug/mL, N-terminal VD
T1 construct: whole, on cells
Procedure: (§1) Stable cell lines overexpressing a cell-surface antigen of interest or human tumor cell lines were harvested from tissue culture flasks and resuspended in phosphate buffered saline (PBS) containing 5% fetal bovine serum (PBS/FBS). Prior to staining, human tumor cells were incubated on ice with (100 μl) human IgG at 5 μg/ml in PBS/FCS. 1-5×10⁵ cells were incubated with antibody or DVD-Ig (2 μg/mL) in PBS/FBS for 30-60 minutes on ice. […] After 30 minutes incubation on ice, cells were washed twice and resuspended in PBS/FBS. Fluorescence was measured using a Becton Dickinson FACSCalibur (Becton Dickinson, San Jose, Calif.).
(§2) The geometric mean is the n root of the multiplication product of n fluorescent signals (a1×a2×a3 . . . an). With log-transformed data the geometric mean is used to normalize the weighting of the data distribution.

EGFR on the cell surface [2] = biological target: T2, EGFR on the cell surface (human, UniProt P00533 25-1210); experiment: flow cytometry on cells, 2 ug/mL, C-terminal VD
T2 construct: whole, on cells
Procedure: as §1, §2

EGFR on the cell surface [3] = biological target: T2, EGFR on the cell surface; experiment: flow cytometry on cells, 2 ug/mL
Procedure: as §1, §2
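Also: cells stained for 30 to 60 min on ice.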

Binder | GEO MEAN [1] | GEO MEAN (EGFR on the cell surface [2]) | GEO MEAN (EGFR on the cell surface [3])
DVD2293 (bispecific antibody, DVD-Ig, outer AB063 / inner AB400) VH: EVQLVESGGGLVQPGGSLRLSCAASGFTFSIYSMNWVRQAPGKGLEWVSYISSSSSTIYYADSVKGRFTISRDNAKNSLYLQMNSLRDEDTAVYYCARDRGDFDAFDIWGQGTMVTVSSASTKGPEVQLVESGGGLVQPGGSLRLSCAASGFSLTNYGVHWVRQAPGKGLEWLGVGWSGGNTDYNTPFTSRLTINKDNSKNTVYLQMNSLRAEDTAVYYCARALTWYDYEFAYWGQGTLVTVSS VL: DIQMTQSPSSLSASVGDRVTITCQASQDITNYLNWYQQKPGKAPKLLIYDASNLETGVPSRFSGSGSGTDFTFTISSLQPEDIATYNCQQCENFPITFGQGTRLEIKRTVAAPDILLTQSPGTLSLSPGERATLSCRASQSIYTNIHWYQQKPGQAPRLLIKYASESISGIPDRFSGSGSGTDFTLTISRLEPEDFAVYYCQQNLNWPTTFGQGTKLEIK | 135 |  | 
DVD2297 (bispecific antibody, DVD-Ig, outer AB062 / inner AB400) VH: QVQLQQWGAGLLKPSETLSLTCAVYGGSFSGYYWSWIRQPPGKGLEWIGEINHSGSTNYNPSLKSRVTISVETSKNQFSLKLSSVTAADTAVYYCARDKWTWYFDLWGRGTLVTVSSASTKGPEVQLVESGGGLVQPGGSLRLSCAASGFSLTNYGVHWVRQAPGKGLEWLGVGWSGGNTDYNTPFTSRLTINKDNSKNTVYLQMNSLRAEDTAVYYCARALTWYDYEFAYWGQGTLVTVSS VL: DIEMTQSPDSLAVSLGERATINCRSSQSVLYSSSNRNYLAWYQQNPGQPPKLLIYWASTRESGVPDRFSGSGSGTDFTLTISSLQAEDVAVYYCQQYYSTPRTFGQGTKVEIKRTVAAPDILLTQSPGTLSLSPGERATLSCRASQSIYTNIHWYQQKPGQAPRLLIKYASESISGIPDRFSGSGSGTDFTLTISRLEPEDFAVYYCQQNLNWPTTFGQGTKLEIK | 135 | 106 | 
AB400 (antibody, V domains shown, parent antibody) VH: EVQLVESGGGLVQPGGSLRLSCAASGFSLTNYGVHWVRQAPGKGLEWLGVGWSGGNTDYNTPFTSRLTINKDNSKNTVYLQMNSLRAEDTAVYYCARALTWYDYEFAYWGQGTLVTVSS VL: DILLTQSPGTLSLSPGERATLSCRASQSIYTNIHWYQQKPGQAPRLLIKYASESISGIPDRFSGSGSGTDFTLTISRLEPEDFAVYYCQQNLNWPTTFGQGTKLEIKR |  |  | 439
DVD2295 (bispecific antibody, DVD-Ig, outer AB116 / inner AB400) VH: EVQLLESGGGLVQPGGSLRLSCAASGFTFSHYVMAWVRQAPGKGLEWVSSISSSGGWTLYADSVKGRFTISRDNSKNTLYLQMNSLRAEDTAVYYCTRGLKMATIFDYWGQGTLVTVSSASTKGPEVQLVESGGGLVQPGGSLRLSCAASGFSLTNYGVHWVRQAPGKGLEWLGVGWSGGNTDYNTPFTSRLTINKDNSKNTVYLQMNSLRAEDTAVYYCARALTWYDYEFAYWGQGTLVTVSS VL: QSALTQPASVSGSPGQSITISCTGTSSDVGSYNVVSWYQQHPGKAPKLIIYEVSQRPSGVSNRFSGSKSGNTASLTISGLQTEDEADYYCCSYAGSSIFVIFGGGTKVTVLGQPKAAPDILLTQSPGTLSLSPGERATLSCRASQSIYTNIHWYQQKPGQAPRLLIKYASESISGIPDRFSGSGSGTDFTLTISRLEPEDFAVYYCQQNLNWPTTFGQGTKLEIK | 80 | 317 | 
